In one test the target is T1, HydA1 (CrHydA1) (Chlamydomonas reinhardtii, UniProt Q9FYU1).
T1 construct: gene hyd1; His-tagged, purified recombinant; theoretical mass 49 kDa; monomer; apo-form reconstituted to [4Fe-4S]-HydA1
T1 sequence (Q9FYU1 56-497): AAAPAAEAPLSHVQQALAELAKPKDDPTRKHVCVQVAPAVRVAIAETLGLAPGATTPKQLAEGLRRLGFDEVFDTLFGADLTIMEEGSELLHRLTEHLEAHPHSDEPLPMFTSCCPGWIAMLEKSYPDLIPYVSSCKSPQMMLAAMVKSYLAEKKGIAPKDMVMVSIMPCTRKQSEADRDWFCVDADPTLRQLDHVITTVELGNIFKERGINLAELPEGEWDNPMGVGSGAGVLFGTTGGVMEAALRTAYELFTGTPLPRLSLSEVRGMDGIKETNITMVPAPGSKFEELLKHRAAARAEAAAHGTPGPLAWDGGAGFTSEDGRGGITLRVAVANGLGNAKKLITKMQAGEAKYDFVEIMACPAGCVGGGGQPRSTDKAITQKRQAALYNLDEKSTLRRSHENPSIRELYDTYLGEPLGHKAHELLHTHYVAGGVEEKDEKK
The experiment in a line: in vitro reconstitution; spectroscopy; GEMMA. It counts as binding. To be noted: anaerobic reconstitution of apo-protein.

Another test has as its target T2, HydF (TmHydF) (Thermotoga maritima, UniProt Q9WYS6).
T2 construct: gene TM_0445; full length, expressed in E. coli Rosetta (II), heat step and phenyl-Sepharose; about 45 kDa; mainly dimer, some tetramer; apo-form reconstituted with [4Fe-4S]
T2 sequence (Q9WYS6 1-404): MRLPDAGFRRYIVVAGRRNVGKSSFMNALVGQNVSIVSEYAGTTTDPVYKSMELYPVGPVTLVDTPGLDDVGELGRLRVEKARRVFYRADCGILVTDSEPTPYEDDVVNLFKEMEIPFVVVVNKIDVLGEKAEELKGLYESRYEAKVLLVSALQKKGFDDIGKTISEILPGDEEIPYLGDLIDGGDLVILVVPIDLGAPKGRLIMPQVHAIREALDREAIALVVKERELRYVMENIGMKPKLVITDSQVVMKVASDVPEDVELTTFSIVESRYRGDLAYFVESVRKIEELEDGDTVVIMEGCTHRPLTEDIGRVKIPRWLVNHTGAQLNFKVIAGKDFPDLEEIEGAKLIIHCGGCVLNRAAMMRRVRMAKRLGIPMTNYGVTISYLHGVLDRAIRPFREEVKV
The experiment in a line: in vitro reconstitution; spectroscopy; GEMMA. It counts as binding. The settings on record: anaerobic reconstitution of apo-protein.

For test [1], the target named is HydF from Thermotoga maritima (Thermotoga maritima). Briefly: GEMMA (gas-phase electrophoretic macromolecule analysis); mixtures of metal-free apo-HydF with HydA1 (apo, [4Fe4S] or holo); 0.02 µg/µl each protein in 20 mM ammonium acetate, 0.005% Tween-20.
Test [2] has the same target. Briefly: GEMMA (gas-phase electrophoretic macromolecule analysis); isolated HydF or HydA1, each as apo, [4Fe4S] and holo form; 0.02 µg/µl protein in 20 mM ammonium acetate, 0.005% Tween-20.
Test [3] has the same target. The experiment in a line: GEMMA (gas-phase electrophoretic macromolecule analysis); mixtures of metal-loaded HydF ([4Fe-4S]-HydF or holo-HydF) with HydA1 (apo, [4Fe4S] or holo); 0.02 µg/µl each protein in 20 mM ammonium acetate, 0.005% Tween-20.
Test [4] concerns the target HydA1 [FeFe] hydrogenase from Chlamydomonas reinhardtii (Chlamydomonas reinhardtii). Described as above.
Test [5] has as its target HydF from Thermotoga maritima (Thermotoga maritima). Briefly: SEC + other: GEMMA (gas-phase electrophoretic macromolecule analysis); fractions P2 of apo-HydF (70 ml) and apo-HydA1 (75 ml) from Superdex-200 (50 mM Tris-HCl pH 8.0, 150 mM NaCl), then wide-scan GEMMA at 0.02 µg/µl protein in 20 mM ammonium acetate, 0.005% Tween 20; 1 mM DTT added to samples.
Test [6] has the same target. Briefly: SEC + other: GEMMA (gas-phase electrophoretic macromolecule analysis); fraction P1 (63 ml) of apo-HydF from Superdex-200 (50 mM Tris-HCl pH 8.0, 150 mM NaCl), then wide-scan GEMMA at 0.02 µg/µl protein in 20 mM ammonium acetate, 0.005% Tween 20; 1 mM DTT added to samples.

As usually defined, the stoichiometry N is the number of molecules, sites or subunits per partner or assembly.

Where “and” joins values, the source holds several entries; their conditions need not be identical. Identical values can stand only once.

Turning to `[S]12[Fe]3[S]4[Fe]1[S]1[Fe]2[S]3[Fe]41` [[4Fe-4S] cluster], the “in vitro reconstitution; spectroscopy; GEMMA” value was “The [4Fe4S] clusters in apo-HydA1, apo-HydF, and the truncated HydF apo-proteins were reconstituted” on HydA1 (CrHydA1); “The [4Fe4S] clusters in apo-HydA1, apo-HydF, and the truncated HydF apo-proteins were reconstituted” at HydF (TmHydF).
For “HydF from Thermotoga maritima (natural protein)”, the stoichiometry N in test [1] was 2 and 4; in test [2], 2 and 4 and > 6; in test [3], 2 and 4; in test [5], 2; in test [6], 4 and 2 and 6. In addition, the stoichiometry N (HydF per HydA1) in test [4] worked out at 2.

For the origin of these results see publication PMC7450098, “The maturase HydF enables [FeFe] hydrogenase assembly via transient, cofactor-dependent interactions” (The Journal of Biological Chemistry, 2020).
